The values below come from patent US20260008818A1, “CYCLIC PEPTIDE OR SALT THEREOF, AND USES THEREOF” (FUJIFILM Corporation, priority 2023, published 2026).

Bridge positions count the residues as written; N and C are the ends. Ends that are not written are not given here. COCH2 = acetyl group that carries the bridge

Test [1] addresses T1, Recombinant Human FGFR1 alpha (IIIc) Fc Chimera Protein, CF (R&D systems, 658-FR-050) (human, UniProt P11362 22-376).
T1 construct: bought reagent; not shown: Fc of the bought chimera
T1 sequence (looked up): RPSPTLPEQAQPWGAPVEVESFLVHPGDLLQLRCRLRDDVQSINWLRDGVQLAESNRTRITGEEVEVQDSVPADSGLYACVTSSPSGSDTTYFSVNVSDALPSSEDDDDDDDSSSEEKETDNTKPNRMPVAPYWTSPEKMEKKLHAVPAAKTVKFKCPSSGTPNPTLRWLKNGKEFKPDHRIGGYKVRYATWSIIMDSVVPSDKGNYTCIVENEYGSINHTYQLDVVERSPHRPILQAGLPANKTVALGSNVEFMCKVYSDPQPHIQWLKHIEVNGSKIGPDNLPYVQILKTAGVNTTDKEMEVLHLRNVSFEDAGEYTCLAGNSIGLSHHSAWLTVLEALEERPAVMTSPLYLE
In words: SPR, FGFR1-Fc immobilized, 10 nmol/L peptide. Here is the method:
(§1) A CM5 sensor chip (Cytiva, 29149603) was set in Biacore-T200 (manufactured by Cytiva) which is a surface plasmon resonance device, and an HBS-EP buffer (Cytiva, BR100826) was added as a running buffer at a flow rate of 10 μL/min to equilibrate the flow channel. Next, 70 μL of a mixed aqueous solution of 0.2 mol/L 1-(3-dimethylaminopropyl)-3-ethylcarbodiimide (EDC) and 0.05 mol/L N-hydroxysuccinimide (NHS) was added to activate the sensor chip. Then, Recombinant Human FGFR 1 alpha (IIIc) Fc Chimera Protein CF (R&D systems, 658-FR-050) prepared at 50 nmol/L in an Acetate 4.5 buffer (Cytiva, BR100350) was added thereto to perform immobilization at about 5000 RU. Thereafter, the blocking treatment was performed with an ethanolamine solution. In addition, in another flow channel of the same sensor chip, blocking treatment was performed immediately after activation without immobilizing FGFR.
A cyclic peptide diluted to 10 nmol/L using HBS-EP was added to each flow channel of the FGFR-immobilized sensor chip produced above at 25° C. for 10 minutes, then HBS-EP was allowed to flow as a running buffer for 30 minutes, and the binding of the cyclic peptide to FGFR was measured. Thereafter, a regeneration treatment of removing the bound cyclic peptide was performed by repeating the flow of a regeneration liquid in which sodium chloride powder was dissolved in Glysine 1.5 (Cytiva, BR100354) to a final concentration of 0.15 mol/L for 1 minute in each flow channel twice. The binding amount of the cyclic peptide was evaluated from the difference between the measured value of Biacore-T200 in the flow channel in which FGFR was immobilized and the measured value of Biacore-T200 in the flow channel in which FGFR was not immobilated, in a case where a 10 nmol/L cyclic peptide was allowed to flow.
(In general: SPR reads the build-up and loss of mass on a sensor chip optically.)

The target of test [2] is T2, FGFR3 Protein, Human, Recombinant (ECD, His Tag) (Sino Biological, 16044-H08H) (human, UniProt P22607 23-375).
T2 construct: extracellular domain; bought reagent; not shown: His tag
T2 sequence (looked up): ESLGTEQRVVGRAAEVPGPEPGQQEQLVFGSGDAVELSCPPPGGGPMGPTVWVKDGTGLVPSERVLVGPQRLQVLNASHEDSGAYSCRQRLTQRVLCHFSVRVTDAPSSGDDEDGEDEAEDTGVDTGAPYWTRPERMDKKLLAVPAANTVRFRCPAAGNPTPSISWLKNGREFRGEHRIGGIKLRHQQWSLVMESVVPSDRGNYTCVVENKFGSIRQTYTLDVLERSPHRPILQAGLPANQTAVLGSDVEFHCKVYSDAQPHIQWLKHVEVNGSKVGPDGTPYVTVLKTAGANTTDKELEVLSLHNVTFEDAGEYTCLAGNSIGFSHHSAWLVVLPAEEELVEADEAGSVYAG
Nature of the test: SPR, peptide immobilized, 1 umol/L FGFR. Here is the method:
as §1, with “a cyclic peptide” for “Recombinant Human FGFR 1 alpha (IIIc) Fc Chimera Protein CF (R&D systems, 658-FR-050)”, “to 2 mg/mL” for “at 50 nmol/L”, “HBS-EP” for “an Acetate 4.5”, “buffer” for “buffer (Cytiva, BR100350)”, “200” for “5000”
(§2) After various FGFRs (FGFR1 Protein, Human, Recombinant (His Tag) (Sino Biological, 10616-H08H), FGFR3 Protein, Human, Recombinant (ECD, His Tag) (Sino Biological, 16044-H08H), FGFR4 Protein, Human, Recombinant (His Tag) (Sino Biological, 10538-H08H)) diluted with HBS-EP to 1 μmol/L at 25° C. was added to each flow channel of the cyclic peptide-immobilized sensor chip prepared above, for 10 minutes, HBS-EP was allowed to flow as a running buffer for 30 minutes, and the binding of various FGFRs to the cyclic peptide was measured. […] The binding amount of the cyclic peptide was evaluated from the difference between the measured value of Biacore-T200 in the flow channel in which the cyclic peptide was immobilized and the measured value of Biacore-T200 in the flow channel in which the cyclic peptide was not immobilized, in a case where 1 μmol/L FGFR was allowed to flow.
(§3) The binding amount of FGFR evaluated above was normalized to the binding amount of FGFR molecules per one molecule of the cyclic peptide using the molecular weights of the cyclic peptide and FGFR, and the binding affinity to FGFR was evaluated according to the following evaluation criteria.

The target in test [3] is T3, FGFR4 Protein, Human, Recombinant (His Tag) (Sino Biological, 10538-H08H) (human, UniProt P22455 22-369).
T3 construct: bought reagent; not shown: His tag
T3 sequence (looked up): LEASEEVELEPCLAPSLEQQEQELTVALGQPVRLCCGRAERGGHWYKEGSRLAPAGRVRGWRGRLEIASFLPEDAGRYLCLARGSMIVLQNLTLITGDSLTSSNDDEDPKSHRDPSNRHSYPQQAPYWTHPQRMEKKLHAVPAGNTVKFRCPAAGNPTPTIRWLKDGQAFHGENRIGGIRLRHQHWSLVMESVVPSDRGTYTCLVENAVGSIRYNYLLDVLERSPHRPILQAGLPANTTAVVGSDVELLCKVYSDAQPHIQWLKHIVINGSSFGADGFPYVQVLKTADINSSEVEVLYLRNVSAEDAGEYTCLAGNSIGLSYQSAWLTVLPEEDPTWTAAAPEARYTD
In words: SPR, peptide immobilized, 1 umol/L FGFR. How it is done:
as §1, with “a cyclic peptide” for “Recombinant Human FGFR 1 alpha (IIIc) Fc Chimera Protein CF (R&D systems, 658-FR-050)”, “to 2 mg/mL” for “at 50 nmol/L”, “HBS-EP” for “an Acetate 4.5”, “buffer” for “buffer (Cytiva, BR100350)”, “200” for “5000”
as §2, §3

Test [4] concerns the target T4, FGFR1 Protein, Human, Recombinant (His Tag) (Sino Biological, 10616-H08H) (human, UniProt P11362 22-376).
T4 construct: bought reagent; not shown: His tag
T4 sequence (looked up): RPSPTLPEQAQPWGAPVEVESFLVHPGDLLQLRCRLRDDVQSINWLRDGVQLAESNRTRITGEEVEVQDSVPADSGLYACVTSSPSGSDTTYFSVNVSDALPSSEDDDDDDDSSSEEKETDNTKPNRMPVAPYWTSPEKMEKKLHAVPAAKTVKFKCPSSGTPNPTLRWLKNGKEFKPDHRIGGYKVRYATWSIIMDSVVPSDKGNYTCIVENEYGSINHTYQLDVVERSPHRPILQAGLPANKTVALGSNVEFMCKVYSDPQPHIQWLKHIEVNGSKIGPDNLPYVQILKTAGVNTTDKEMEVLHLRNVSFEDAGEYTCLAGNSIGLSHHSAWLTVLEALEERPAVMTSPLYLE
Nature of the test: SPR, peptide immobilized, 1 umol/L FGFR. How it is done: as §1, with “a cyclic peptide” for “Recombinant Human FGFR 1 alpha (IIIc) Fc Chimera Protein CF (R&D systems, 658-FR-050)”, “to 2 mg/mL” for “at 50 nmol/L”, “HBS-EP” for “an Acetate 4.5”, “buffer” for “buffer (Cytiva, BR100350)”, “200” for “5000”
as §2, §3

B1: SEQ ID NO: 382 (peptide)
peptide: HCSYERLQFHGHEAPFRVK(COCH2)VKKK
modifications: thioether 2-19; also: acetyl defined on Orn side-chain amine, here on K
notes: chemically synthesized
With B1, the “binding amount (SPR, cyclic peptide molecules bound per one molecule of FGFR at 10 nmol/L peptide)” value in test [1] was ≥ 0.7 moleculesofthecyclicpeptide/onemoleculeoffgfr. Further, the “binding amount (SPR, FGFR molecules bound per molecule of cyclic peptide at 1 umol/L FGFR)” value in test [2] is 0.01 to 0.05 moleculesoffgfr/onemoleculeofthecyclicpeptide; in test [3], ≥ 0.05 moleculesoffgfr/onemoleculeofthecyclicpeptide; in test [4] it was ≥ 0.05 moleculesoffgfr/onemoleculeofthecyclicpeptide.
